The target in the assay is IL-6R (UniProt P08887). Kind of assay: chemiluminescent immunoassay; ABEI-labelled human IL-6 on IL-6R-coated magnetic beads, diluent only (no antibody); same control value printed in all four columns.
Chain of UniProt P08887 (P08887 20-358 limits assumed): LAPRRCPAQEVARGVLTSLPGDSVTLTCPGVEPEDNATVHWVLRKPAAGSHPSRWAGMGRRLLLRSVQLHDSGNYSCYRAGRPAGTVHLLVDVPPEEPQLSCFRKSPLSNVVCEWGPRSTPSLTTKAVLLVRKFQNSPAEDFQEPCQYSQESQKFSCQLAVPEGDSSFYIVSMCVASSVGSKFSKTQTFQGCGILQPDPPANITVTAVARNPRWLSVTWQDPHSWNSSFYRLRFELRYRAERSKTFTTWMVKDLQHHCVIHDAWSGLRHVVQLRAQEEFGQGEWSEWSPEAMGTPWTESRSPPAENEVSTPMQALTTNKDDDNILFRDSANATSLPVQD

For “人IL-6抗原 (from UniProt P05231 30-212) (ligand)”, the RLU (相对光强度) stood at 606000 RLU.

Values taken from CN113214393A.
